# According to US20080131465A1, “Group a Streptococcus Crge Protein” (priority 2004, published 2008):
# T1: LL-37 (Homo sapiens, UniProt P49913)
# T1 construct: release the mature C-terminal antimicrobial peptide
# T1 sequence (P49913 134-170 limits assumed): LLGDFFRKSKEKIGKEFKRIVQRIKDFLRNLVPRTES
# Columns and labels:
# [1] = tested on: ΔcrgR mutant of GAS strain SF370; assay type: cell-based, Streptococcus pyogenes; details: 1 hour at 37° C., ~10^6 cfu
# Protocol: (§1) The mutant was obtained using allelic exchange gene replacement mutagenesis. Positive clones were confirmed by PCR and used for further experiments. Quantitative real time PCR confirmed the absence of crgR mRNA in the mutant. ΔcrgR mutant cathelicidin resistance was tested in a bacterial killing assay. Bacteria were grown in THB to OD600 0.2 and diluted in […] Tris-HCl, pH7.5, containing 5 mM glucose. 1 ml of bacteria (˜10^6 cfu) were incubated together with different concentrations of cathelicidins for 1 hour at 37° C. with no agitation. The bactericidal activity was assessed by plating serial dilutions of the incubation mixtures on THY-blood agar.
# [2] = tested on: GAS strain SF370 WT; assay type: cell-based, Streptococcus pyogenes; details: 1 hour at 37° C., ~10^6 cfu
# Protocol: as §1
# [3] = tested on: WT and Δspy1542 mutant strains; assay: FACS analysis of LL-37 localised on the bacterial surface; assay type: cell-based, Streptococcus pyogenes; details: 0.8 μM LL-37; WT versus Δspy1542 mutant; 5 or 10 min at 37° C.
# Protocol: An experiment was carried out to see if LL-37 bound to the surface of the bacteria. 0.8 μM LL-37 was added to the bacteria in a method similar to that for the bacterial killing assay. The amount of LL-37 localised on the bacterial surface was then compared for WT and Δspy1542 mutant strains by FACS analysis. […] This “protective” effect also increases with time. The WT strains therefore appear to be shielded against LL-37.
# [4] = tested on: Streptococcus pneumoniae; assay: antimicrobial assay on Streptococcus pneumoniae; assay type: cell-based
# Protocol: as §1
# In order to see if a similar mechanism of action was found in other bacteria encoding heterologous proteins, the antimicrobial assay was carried out as described above, except using Streptococcus pneumoniae. […] The experiment was repeated by adding 70 μg of native Spy1542 in addition to 0.4 μM, 0.8 μM or 1.6 μM of LL-37. In this second experiment, 100% survival at 0.4 μM was noted. Therefore Spy1542 appears to be able to inhibit cathelicidin action also in heterologous systems
# [5] = biological target: T1, LL-37; assay: mass spectrometry of LL-37 in supernatant after Spy1542 treatment; details: WT strain, 0.4 μM LL-37, after 30 minutes
# Protocol: Spy1542 was therefore used to treat the WT strain challenged with 0.4 μM LL-37 in a process similar to the bacterial killing assay described above. After 30 minutes, the bacteria were pelleted and the supernatant was analysed. It was discovered by mass spectrometry that the LL-37 in the supernatant was unmodified by the action of Spy1542 (FIG. 13).
# [6] = tested on: Wild-type, ΔcrgR and ΔcrgR/Δspy1542-43 strains challenged with cathelicidin; assay: bacterial killing assay with purified Spy1542 added to the medium; assay type: cell-based, Streptococcus pyogenes; details: different concentrations of purified Spy1542
# Protocol: The involvement of Spy1542 in the resistance mechanism to antimicrobial peptides was investigated further by cloning and expressing Spy1542 as a native protein. The expressed protein was purified by using a Q sepharose column followed by Cu chelating and finally, gel filtration (FIG. 7). The purified protein was successively used to study its effect when added to the medium in bacterial-killing assays.
# Wild-type; ΔcrgR and ΔcrgR/Δspy1542-43 strains were challenged with 0.4 μM LL-37 or CRAMP, and added with different concentrations of the purified protein.
# In addition, Spy1542 protein was also able to enhance in a dose dependent manner the survival rate of the ΔcrgR mutant (FIG. 8a).
# [7] = tested on: bacteria challenged with LL-37; assay: pre-treatment of bacteria with Spy1542, washing, then LL-37 challenge; assay type: cell-based, Streptococcus pyogenes; details: Spy1542 added, bacteria pelleted, washed, resuspended; then 0.4 μM LL-37
# Protocol: A further experiment was therefore carried out to confirm that the effect of Spy1542 was indirect. Spy1542 was added to the bacteria. The bacteria were then pelleted, washed and resuspended. 0.4 μM LL-37 was then added to the suspension.
Molecule,concentration necessary to kill 50% of bacterial cells (LD50) [1],concentration necessary to kill 50% of bacterial cells (LD50) [2],amount of LL-37 localised on the bacterial surface [3],killing of bacteria ([4]; increasing concentrations of LL-37),modification of LL-37 in the supernatant by Spy1542 [5],inhibition of CRAMP bactericidal activity ([6]; 0.4 μM CRAMP),"inhibition of LL-37 action (number of colonies, survival rate) ([6]; 0.4 μM LL-37)",protective effect against LL-37 after pre-treatment and washing [7],survival ([4]; 70 μg native Spy1542 added with 0.4 μM LL-37)
CC[C@H](C)[C@H](NC(=O)[C@H](CCCCN)NC(=O)[C@H](CCC(=O)O)NC(=O)[C@H](CCCCN)NC(=O)[C@H](CO)NC(=O)[C@H](CCCCN)NC(=O)[C@H](CCCNC(=N)N)NC(=O)[C@H](Cc1ccccc1)NC(=O)[C@H](Cc1ccccc1)NC(=O)[C@H](CC(=O)O)NC(=O)CNC(=O)[C@H](CC(C)C)NC(=O)[C@@H](N)CC(C)C)C(=O)NCC(=O)N[C@@H](CCCCN)C(=O)N[C@@H](CCC(=O)O)C(=O)N[C@@H](Cc1ccccc1)C(=O)N[C@@H](CCCCN)C(=O)N[C@@H](CCCNC(=N)N)C(=O)N[C@H](C(=O)N[C@H](C(=O)N[C@@H](CCC(N)=O)C(=O)N[C@@H](CCCNC(=N)N)C(=O)N[C@H](C(=O)N[C@@H](CCCCN)C(=O)N[C@@H](CC(=O)O)C(=O)N[C@@H](Cc1ccccc1)C(=O)N[C@@H](CC(C)C)C(=O)N[C@@H](CCCNC(=N)N)C(=O)N[C@@H](CC(N)=O)C(=O)N[C@@H](CC(C)C)C(=O)N[C@H](C(=O)N1CCC[C@H]1C(=O)N[C@@H](CCCNC(=N)N)C(=O)N[C@H](C(=O)N[C@@H](CCC(=O)O)C(=O)N[C@@H](CO)C(=O)O)[C@@H](C)O)C(C)C)[C@@H](C)CC)C(C)C)[C@@H](C)CC [LL-37],0.28 µM,0.103 µM,WT strain had less LL-31 on the bacterial surface,shown to kill the bacteria,–,–,–,–,–
"Spy1542: Streptococcus pyogenes protein encoded by crgE (spy1542), cloned, expressed as native protein and purified; confers resistance to cathelicidins (protein, Streptococcus pyogenes, Streptococcus pyogenes protein encoded by crgE (spy1542), cloned, expressed as native protein and purified; confers resistance to cathelicidins) MESYITPKHQEACVAAIKQIVSYPSVCHEGENGTPFGQAIQDILEATLDLCQGLGFHTYIDPEGYYGYAELGDQKEVLAILCHLDVVPEGDRQLWKTDPFDCVEADGCLFGRGTQDDKGPTMMALFATKALIDAGVTFNKRIRFIFGTDEETLWRCMNRYNDVEEQATFGFAPDSSFPLTYAEKGLLQAKLVGKGSDKLSLEIGQAYNVVPARASYQGDKLEALQKELDKLGFEYVVKEGELTVYGLAQHAKDAPDGINAMIRLAKALVVLEPNKTLDFLANVIDEDGRALNIFGRIEDEPSGKLSFNAAGLTLTKDKAEIRLDIRIPVLADKEKLVQQLSQKAQEYGLTYEEFDYLAPLYVPLDSELVTTLLSVYRKKTGDQSPAQSSGGATFARTMKNCVAFGALFPDAVQTEHQENEHIVLADAYRAMDIYAEAIYRLTR",–,–,–,–,unmodified,inhibited cathelicidin bactericidal activity in a dose-dependent fashion,inhibits LL-37 action in a dose dependent manner,protective effect of Spy1542 was maintained and that it was dose dependent,100%
